How the values were obtained:
[1] = target: SARS-CoV-2 Receptor Binding Domain (RBD) protein (SARS-CoV-2, UniProt P0DTC2 319-541)
[2] = target: T1, MERS Receptor Binding Domain (RBD) protein (MERS virus, UniProt K9N5Q8 367-606); experiment: SPR; clone listed as COV2 only at the 21st table, row 11, column 3
T1 construct: also called Middle East Respiratory Syndrome (MERS) virus
T1 sequence: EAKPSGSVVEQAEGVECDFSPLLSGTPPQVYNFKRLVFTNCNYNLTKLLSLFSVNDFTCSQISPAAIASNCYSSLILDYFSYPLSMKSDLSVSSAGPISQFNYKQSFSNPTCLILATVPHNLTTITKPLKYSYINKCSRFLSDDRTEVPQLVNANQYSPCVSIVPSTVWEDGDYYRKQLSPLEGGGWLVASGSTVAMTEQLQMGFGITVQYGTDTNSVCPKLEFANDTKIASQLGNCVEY

[3] = target: T2, SARS-CoV-1 Receptor Binding Domain (RBD) protein (SARS-CoV-1, UniProt P59594 306-527); experiment: as above
T2 construct: also called SARS1

[4] = target: T1, MERS Receptor Binding Domain (RBD) …; experiment: SPR; clone listed as COV2 only at the 21st table, row 56, column 3
[5] = target: T2, SARS-CoV-1 Receptor Binding Domain …; experiment: as above
[6] = target: T1, MERS Receptor Binding Domain (RBD) …; experiment: SPR; clone listed as COV2 only at the 21st table, row 55, column 3
[7] = target: T2, SARS-CoV-1 Receptor Binding Domain …; experiment: as above
[8] = target: T1, MERS Receptor Binding Domain (RBD) …; experiment: SPR; clone listed as COV2 only at the 21st table, row 53, column 3
[9] = target: T2, SARS-CoV-1 Receptor Binding Domain …; experiment: as above

B1: COVID19_P21_A05 (scFv, V domains shown)
VH: QVQLVQSGAEVKKPGSSVKVSCKASGGGFITYWIGWVRQAPGQGLEWMGIIYPGDGETRYSQKFQGRVTITADESTSTAYMELSSLRSEDTAVYYCAGGSGISTPMDVWGQGTLVTVSS
VL: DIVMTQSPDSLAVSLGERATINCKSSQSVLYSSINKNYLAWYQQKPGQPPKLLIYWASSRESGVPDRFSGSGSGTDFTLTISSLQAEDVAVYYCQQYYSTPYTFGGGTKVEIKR
[1]
  Kd: 41.2 nM
  koff: 0.0173 s⁻¹
  kon: 419000 M⁻¹ s⁻¹

B2: COVID19_P09_G05 (scFv, V domains shown)
VH: QVQLVQSGAEVKKPGSSVKVSCKASGYTFTGHYMHWVRQAPGQGLEWMGIIYPGDSEARYSQKFQGRVTITADESTSTAYMELSSLRSEDTAVYYCAGGSGISTPMDVWGQGTLVTVSS
VL: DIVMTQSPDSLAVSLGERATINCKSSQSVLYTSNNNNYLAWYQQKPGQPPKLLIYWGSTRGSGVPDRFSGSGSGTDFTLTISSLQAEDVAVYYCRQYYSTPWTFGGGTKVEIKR
[1]
  Kd: 11.3 nM
  koff: 0.000482 s⁻¹
  kon: 42600 M⁻¹ s⁻¹

B3: COVID19_P21_A04 (scFv, V domains shown)
VH: QVQLVQSGAEVKKPGSSVKVSCKASGYGFITYWIGWVRQAPGQGLEWMGIIYPGDSETRYSQKFQGRVTITADESTSTAYMELSSLRSEDTAVYYCAGGSGLLTPMDVWGQGTLVTVSS
VL: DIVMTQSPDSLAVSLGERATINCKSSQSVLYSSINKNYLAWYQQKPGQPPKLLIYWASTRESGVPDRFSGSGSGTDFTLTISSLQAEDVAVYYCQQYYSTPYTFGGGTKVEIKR
[1]
  Kd: 35 nM
  koff: 0.0143 s⁻¹
  kon: 409000 M⁻¹ s⁻¹

B4: COVID19_P21_F02 (scFv, V domains shown)
VH: QVQLVQSGAEVKKPGSSVKVSCKASGYTFTSYGISWVRQAPGQGLEWMGIIYPGDGTTRYSQKFQGRVTITADESTSTAYMELSSLRSEDTAVYYCLPGSGISTPMDVWGQGTLVTVSS
VL: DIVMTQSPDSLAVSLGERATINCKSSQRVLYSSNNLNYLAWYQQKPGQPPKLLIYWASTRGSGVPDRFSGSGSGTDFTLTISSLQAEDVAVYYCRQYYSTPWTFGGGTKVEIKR
[1]
  Kd: 26.8 nM
  koff: 0.000679 s⁻¹
  kon: 25400 M⁻¹ s⁻¹

B5: COVID19_P22_E10 (scFv, V domains shown)
VH: QVQLVQSGAEVKKPGSSVKVSCKASGGGFITYWIGWVRQAPGQGLEWMGIIYPGDGETRYSQKFQGRVTITADESTSTAYMELSSLRSEDTAVYYCAGGSGISTPMDVWGQGTLVTVSS
VL: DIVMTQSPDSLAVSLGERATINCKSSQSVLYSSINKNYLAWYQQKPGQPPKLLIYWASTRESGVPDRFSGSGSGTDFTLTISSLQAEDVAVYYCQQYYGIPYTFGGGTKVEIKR
[1]
  Kd: 25.3 nM
  koff: 0.0058 s⁻¹
  kon: 230000 M⁻¹ s⁻¹

B6: COVID19_P21_E08 (scFv, V domains shown)
VH: QVQLVQSGAEVKKPGSSVKVSCKASGYGFITYWIGWVRQAPGQGLEWMGIIYPGDGETRYSQKFQGRVTITADESTSTAYMELSSLRSEDTAVYYCAGGSGISTPMDVWGQGTLVTVSS
VL: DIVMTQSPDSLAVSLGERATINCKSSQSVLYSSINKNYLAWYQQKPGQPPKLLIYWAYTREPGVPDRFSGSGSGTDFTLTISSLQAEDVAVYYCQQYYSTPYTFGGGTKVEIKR
[1]
  Kd: 32.8 nM
  koff: 0.0142 s⁻¹
  kon: 434000 M⁻¹ s⁻¹

B7: COVID19_P22_D06 (scFv, V domains shown)
VH: QVQLVQSGAEVKKPGSSVKVSCKASGGGFITYWIGWVRQAPGQGLEWMGIIYPGDSETRYSQKFQGRVTITADESTSTAYMELSSLRSEDTAVYYCAGGSGVLTPMDVWGQGTLVTVSS
VL: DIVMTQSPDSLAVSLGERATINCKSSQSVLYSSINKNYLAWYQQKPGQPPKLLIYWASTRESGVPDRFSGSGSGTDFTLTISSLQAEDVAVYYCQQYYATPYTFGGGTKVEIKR
[1]
  Kd: 30.5 nM
  koff: 0.012 s⁻¹
  kon: 410000 M⁻¹ s⁻¹

B8: COVID19_P10_B04 (scFv, V domains shown)
VH: QVQLVQSGAEVKKPGSSVKVSCKASGYGFISYWIGWVRQAPGQGLEWMGIIYPGDGETRYSQKFQGRVTITADESTSTAYMELSSLRSEDTAVYYCAGSDGISTPMDVWGQGTLVTVSS
VL: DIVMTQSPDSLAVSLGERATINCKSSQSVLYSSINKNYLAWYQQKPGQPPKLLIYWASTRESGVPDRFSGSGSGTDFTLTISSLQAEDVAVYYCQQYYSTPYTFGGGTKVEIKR
[1]
  Kd: 36.2 nM
  koff: 0.0223 s⁻¹
  kon: 614000 M⁻¹ s⁻¹

B9: COVID19_P21_B11 (scFv, V domains shown)
VH: QVQLVQSGAEVKKPGSSVKVSCKASGYGFITYWIGWVRQAPGQGLEWMGIIYPGDSETRYSQKFQGRVTITADESTSTAYMELSSLRSEDTAVYYCAGSDGISTPMDVWGQGTLVTVSS
VL: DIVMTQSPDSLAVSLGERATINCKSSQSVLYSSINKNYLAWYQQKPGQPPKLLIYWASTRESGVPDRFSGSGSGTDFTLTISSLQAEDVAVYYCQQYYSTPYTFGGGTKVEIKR
[1]
  Kd: 26.3 nM
  koff: 0.0166 s⁻¹
  kon: 631000 M⁻¹ s⁻¹

B10: COVID19_P09_C08 (scFv, V domains shown)
VH: QVQLVQSGAEVKKPGSSVKVSCKASGYGFITYWIGWVRQAPGQGLEWMGIIYPGDSETRYAQKFQGRVTITADESTSTAYMELSSLRSEDTAVYYCAGGSGISTPMDVWGQGTLVTVSS
VL: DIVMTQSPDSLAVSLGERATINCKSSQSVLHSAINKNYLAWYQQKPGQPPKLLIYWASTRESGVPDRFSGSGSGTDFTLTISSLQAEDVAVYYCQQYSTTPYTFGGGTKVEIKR
[1]
  Kd: 28.7 nM
  koff: 0.0131 s⁻¹
  kon: 458000 M⁻¹ s⁻¹

B11: COVID19_P21_E07 (scFv, V domains shown)
VH: QVQLVQSGAEVKKPGSSVKVSCKASGYGFITYWIGWVRQAPGQGLEWMGIIYPGDSETRYSQKFQGRVTITADESTSTAYMELSSLRSEDTAVYYCAGGSGISTPMDVWGQGTLVTVSS
VL: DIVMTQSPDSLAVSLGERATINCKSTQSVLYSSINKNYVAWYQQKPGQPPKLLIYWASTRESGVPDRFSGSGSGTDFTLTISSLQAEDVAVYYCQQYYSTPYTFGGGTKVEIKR
[1]
  Kd: 41 nM
  koff: 0.0155 s⁻¹
  kon: 378000 M⁻¹ s⁻¹

B12: COVID19_P10_B08 (scFv, V domains shown)
VH: QVQLVQSGAEVKKPGSSVKVSCKASGGGFITYWIGWVRQAPGQGLEWMGWINPNSGGTKYAQKFQGRVTITADESTSTAYMELSSLRSEDTAVYYCAGGSGISTPIDVWGQGTLVTVSS
VL: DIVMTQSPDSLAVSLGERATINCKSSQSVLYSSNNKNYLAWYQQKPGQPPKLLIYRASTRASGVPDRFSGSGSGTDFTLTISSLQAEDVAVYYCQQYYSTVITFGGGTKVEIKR
[1]
  Kd: 41.3 nM
  koff: 0.0217 s⁻¹
  kon: 527000 M⁻¹ s⁻¹

B13: COVID19_P21_A10 (scFv, V domains shown)
VH: QVQLVQSGAEVKKPGSSVKVSCKASGYGFITYWIGWVRQAPGQGLEWMGIIYPGDGEARYSQKFQGRVTITADESTSTAYMELSSLRSEDTAVYYCAGGSGISTPMDVWGQGTLVTVSS
VL: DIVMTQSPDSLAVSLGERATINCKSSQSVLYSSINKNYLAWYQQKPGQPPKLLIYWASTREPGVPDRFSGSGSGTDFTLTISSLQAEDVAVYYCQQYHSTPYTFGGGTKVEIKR
[1]
  Kd: 46.2 nM
  koff: 0.00729 s⁻¹
  kon: 158000 M⁻¹ s⁻¹

B14: COVID19_P21_C09 (scFv, V domains shown)
VH: QVQLVQSGAEVKKPGSSVKVSCKASGYGFISYWIGWVRQAPGQGLEWMGIIYPGDSETRYSQKFQGRVTITADESTSTAYMELSSLRSEDTAVYYCAGGSGILEPMDVWGQGTLVTVSS
VL: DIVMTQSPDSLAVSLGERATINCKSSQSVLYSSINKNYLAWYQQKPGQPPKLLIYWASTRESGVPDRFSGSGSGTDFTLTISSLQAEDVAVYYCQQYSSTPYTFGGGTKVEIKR
[1]
  Kd: 28.5 nM
  koff: 0.0157 s⁻¹
  kon: 551000 M⁻¹ s⁻¹

B15: COVID19_P09_G04 (scFv, V domains shown)
VH: QVQLVQSGAEVKKPGSSVKVSCKASGYGFITYWIGWVRQAPGQGLEWMGIIYPGDSETNYSQKFQGRVTITADESTSTAYMELSSLRSEDTAVYYCAGGSGLFTPMDVWGQGTLVTVSS
VL: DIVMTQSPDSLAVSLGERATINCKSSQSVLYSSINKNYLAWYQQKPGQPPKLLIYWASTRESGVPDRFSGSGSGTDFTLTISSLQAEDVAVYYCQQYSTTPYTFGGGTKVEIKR
[1]
  Kd: 6.18 nM
  koff: 0.00381 s⁻¹
  kon: 616000 M⁻¹ s⁻¹

B16: COVID19_P22_F11 (scFv, V domains shown)
VH: QVQLVQSGAEVKKPGSSVKVSCKASGGGFITYWISWVRQAPGQGLEWMGIIYPGDGEARYSQKFQGRVTITADESTSTAYMELSSLRSEDTAVYYCAGGSGIIQPMDVWGQGTLVTVSS
VL: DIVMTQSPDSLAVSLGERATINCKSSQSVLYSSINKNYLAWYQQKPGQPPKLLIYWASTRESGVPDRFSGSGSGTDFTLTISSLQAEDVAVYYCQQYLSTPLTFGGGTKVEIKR
[2]
  binding result: no binding (tested: up to 300 nM)
[3]
  binding result: no binding (tested: up to 300 nM)
[1]
  Kd: 23.3 nM
  koff: 0.0093 s⁻¹
  kon: 400000 M⁻¹ s⁻¹

B17: COVID19_P21_H02 (scFv, V domains shown)
VH: QVQLVQSGAEVKKPGSSVKVSCKASGYGFITYWIGWVRQAPGQGLEWMGIIYPGDSETRYAQKFQGRVTITADESTSTAYMELSSLRSEDTAVYYCAGGSGLYTPMDVWGQGTLVTVSS
VL: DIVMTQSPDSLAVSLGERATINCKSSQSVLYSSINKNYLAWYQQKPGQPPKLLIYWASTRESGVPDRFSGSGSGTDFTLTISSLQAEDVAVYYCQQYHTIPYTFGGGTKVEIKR
[1]
  Kd: 40.3 nM
  koff: 0.0124 s⁻¹
  kon: 308000 M⁻¹ s⁻¹

B18: COVID19_P21_A03 (scFv, V domains shown)
VH: QVQLVQSGAEVKKPGSSVKVSCKASGGTFSNNGLSWVRQAPGQGLEWMGGIIPIFGTANYAQKFQGRVTITADESTSTAYMELSSLRSEDTAVYYCRMGSGISTPMDVWGQGTLVTVSS
VL: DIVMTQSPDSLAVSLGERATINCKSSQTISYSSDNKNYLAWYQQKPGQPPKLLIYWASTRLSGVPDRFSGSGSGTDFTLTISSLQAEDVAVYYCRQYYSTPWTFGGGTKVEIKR
[1]
  Kd: 20.6 nM
  koff: 0.000858 s⁻¹
  kon: 41700 M⁻¹ s⁻¹

B19: COVID19_P10_B10 (scFv, V domains shown)
VH: QVQLVQSGAEVKKPGSSVKVSCKASGYSFSDYHVHWVRQAPGQGLEWVGMIIPRHGGTAYAQKFQGRVTITADESTSTAYMELSSLRSEDTAVYYCAGGSGISTPMDVWGQGTLVTVSS
VL: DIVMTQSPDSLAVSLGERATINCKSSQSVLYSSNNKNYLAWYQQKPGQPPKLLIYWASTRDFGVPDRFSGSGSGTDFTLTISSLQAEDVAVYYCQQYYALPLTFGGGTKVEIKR
[1]
  Kd: 46.2 nM
  koff: 0.014 s⁻¹
  kon: 302000 M⁻¹ s⁻¹
[4]
  binding result: no binding (tested: up to 300 nM)
[5]
  binding result: no binding (tested: up to 300 nM)

B20: COVID19_P09_B09 (scFv, V domains shown)
VH: QVQLVQSGAEVKKPGSSVKVSCKASGYRFTDYHLHWVRQAPGQGLEWMGGIVPFSGTTNFAQKFQGRVTITADESTSTAYMELSSLRSEDTAVYYCAGGSGETTPMDVWGQGTLVTVSS
VL: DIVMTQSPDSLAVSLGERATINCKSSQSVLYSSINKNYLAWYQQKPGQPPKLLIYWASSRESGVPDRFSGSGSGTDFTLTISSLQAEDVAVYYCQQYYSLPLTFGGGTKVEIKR
[6]
  binding result: no binding (tested: up to 300 nM)
[7]
  binding result: no binding (tested: up to 300 nM)
[1]
  Kd: 22.9 nM
  koff: 0.000507 s⁻¹
  kon: 22100 M⁻¹ s⁻¹

B21: COVID19_P09_G12 (scFv, V domains shown)
VH: QVQLVQSGAEVKKPGSSVKVSCKASGYPFTNYGISWVRQAPGQGLEWMGWMNPNSGNTGYAQKFQGRVTITADESTSTAYMELSSLRSEDTAVYYCATLSGISTPMDVWGQGTLVTVSS
VL: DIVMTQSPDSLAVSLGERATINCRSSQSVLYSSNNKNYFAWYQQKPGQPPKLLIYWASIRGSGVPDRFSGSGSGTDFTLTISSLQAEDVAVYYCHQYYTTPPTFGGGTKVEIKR
[8]
  binding result: no binding (tested: up to 300 nM)
[9]
  binding result: no binding (tested: up to 300 nM)
[1]
  Kd: 0.4 nM
  koff: 0.000363 s⁻¹
  kon: 828000 M⁻¹ s⁻¹

B22: COVID19_P21_B12 (scFv, V domains shown)
VH: QVQLVQSGAEVKKPGSSVKVSCKASGGTFSSYAISWVRQAPGQGLEWMGMINPGGGNTNYAEKFQGRVTITADESTSTAYMELSSLRSEDTAVYYCAGEWGISTPMDVWGQGTLVTVSS
VL: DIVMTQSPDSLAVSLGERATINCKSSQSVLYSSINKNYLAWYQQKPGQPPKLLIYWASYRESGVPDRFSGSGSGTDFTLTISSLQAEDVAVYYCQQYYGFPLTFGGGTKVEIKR
[1]
  Kd: 37.6 nM
  koff: 0.0104 s⁻¹
  kon: 276000 M⁻¹ s⁻¹

Source: US11034762 (CENTIVAX, dated 2021)
